± gives the standard deviation of the averaged measurements.

Consider six sequences from the supplement of paper PMC12455559.

Series [1] can be described thus: purified protein yield per well (BCA); higher = higher soluble expression. The gist of the method:
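On an OT-2 robot, lysed cells were processed by binding protein to Ni-charged magnetic beads and releasing it with SUMO protease. Expression took place in E. coli C41(DE3), in 2 mL autoinduction cultures with 100 µg/mL kanamycin, for 2 h at 37 °C followed by 40 h at 18 °C. The Pierce Rapid Gold BCA kit was used to quantify purified protein yield in each well, with values under 25 ug (0.1 mg/mL) below the detection threshold.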

The nature of series [2]: melting temperature (DSF); higher = more thermostable. The gist of the method: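 Values are melting temperatures from differential scanning fluorimetry. Candidate enzymes were expressed in E. coli C41(DE3), purified on nickel beads and freed by SUMO protease cleavage. In sealed PCR plates on a Bio-Rad CFX96, 45 μL enzyme (0 to 0.3 mg/mL) was combined with 5 μL 5X Sypro Orange. Fluorescence was recorded from 25 °C for 250 cycles, rising 0.3 °C per cycle at a ramp of 0.3 °C/s.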

A short description of series [3]: PET hydrolysis, aromatic products released after 48 h (umol product/mg enzyme); higher = more PET depolymerization activity. The gist of the method:
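The measure of PET hydrolysis activity is aromatic product released into the supernatant, given per mg enzyme. Nickel-purified, SUMO-cleaved enzyme without tag was added at 5 μg (50 μL) to 3.5 mg amorphous PET film or crystalline PET powder in 450 μL of citrate, phosphate or glycine buffer spanning pH 4.5 to 8.5. After 48 h at 40 or 60 °C in sealed plates without shaking, absorbance at 260 and 280 nm was taken against buffer blanks.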

Where [4] appears, read: substrate: cryPow, 40 °C, pH 4.5.
The mark [5] stands for this setting: substrate: cryPow, 40 °C, pH 5.5.
Setting [6] is: substrate: cryPow, 40 °C, pH 6.5.
Where [7] appears, read: substrate: cryPow, 40 °C, pH 7.5.
Setting [8] is: substrate: cryPow, 60 °C, pH 4.5.
Setting [9] is: substrate: cryPow, 60 °C, pH 5.5.
Setting [10] is: substrate: cryPow, 60 °C, pH 6.5.
The mark [11] stands for this setting: substrate: cryPow, 60 °C, pH 7.5.
[12] abbreviates: substrate: aFilm, 40 °C, pH 4.5.
[13] abbreviates: substrate: aFilm, 40 °C, pH 5.5.
Setting [14] is: substrate: aFilm, 40 °C, pH 6.5.
Setting [15] is: substrate: aFilm, 40 °C, pH 7.5.
Setting [16] is: substrate: aFilm, 60 °C, pH 4.5.
Setting [17] is: substrate: aFilm, 60 °C, pH 5.5.
[18] abbreviates: substrate: aFilm, 60 °C, pH 6.5.
The mark [19] stands for this setting: substrate: aFilm, 60 °C, pH 7.5.

As for “ADNPYQRGPDPTRNSVAAENGPFANTSVSVPSGNGFNGGRIYYPTDTSQGTFGAIAISPGYTALFSAELAWMGPWLASHGFVVIGIETNSRNDFDTARGTQLLAALDYLTQQSTVRNRVDPNRLAVAGHSMGGGGALSAAMRRPSLKAVAGITPYSPSSNLANDRVPTMIISGQADTVVTPSYALGLYNSIPATTESVYLEVAGGDHGFMVGRSNPVLIRTMLPFLKTFVDNDARYTQFLCPLVDNSGVVTYRNTCPLLPPPTGTPTPTPTTPGPTTPPPTTPPPGSASEIVGTQSGRCVDVPNSSRTNGTRVQLYDCNRQTNQTWTYNTSTKQLRVYGDMCLDAAGTGNSAAVQIYACHSQTNQQWNINTNGTISGVQSGRCLDAWNTTNGAQIQLYDCHGQTNQQFRLAAR [TEP115]”, in series [1], the “purified protein yield per well” value was 113 µg. This sequence also returned a melting temperature in series [2] of 60.4 C. In addition, the PET hydrolysis in series [3] (setting [4]) is 4; in series [3] (setting [5]), 8; in series [3] (setting [6]), 7; in series [3] (setting [7]), 3; in series [3] (setting [8]), less than 3; in series [3] (setting [9]), less than 3. Also, the PET hydrolysis in series [3] (setting [10]) and in series [3] (setting [11]) was less than 3 in each case.
For the sequence “MLGALAIVGGTRPATGADNPYQRGPDPTPASVSAGRGTFATAQVSVGAGNGFGGGVIYYPTDTSQGTFGAIAVVPGYTATWAAEGAWMGHWLASYGFVVIGIDTNTRNDWDTARGTQLLAALDYLTQRSSVRDRVDATRTAVMGHSMGGGGAAYASLQRPSLKTSVGLAPFSPSQNLTTTRVPTMLLSGQNDGTVTPSSVQNLYNGIPAGVEKAYLELTGAGHGFPTSNNPTMMRTVIPWFKIFVDSDTRYTQFLCPLADSNGIRTYQSTCPLVPSTPPTTTTTPTSTTTTSTTSTTPTTTTTTPQPGGACSATYRTVNSWSGGYQGEVTVTAGTSAVTGWTVRWSLGSGQTISQVWNGTLTVDGPTASVRNVSYNGSLGANASTTFGFIGGGTPPTSTLSCTSP [ESM006]”, in series [1], the “purified protein yield per well” value came out at 577 µg. The melting temperature in series [2] amounted to 63.1 C. Besides, the PET hydrolysis in series [3] (setting [12]), in series [3] (setting [13]), in series [3] (setting [14]), in series [3] (setting [15]), in series [3] (setting [16]) and in series [3] (setting [17]) was less than 3 each time. In addition, the PET hydrolysis in series [3] (setting [18]) is less than 3; in series [3] (setting [19]), less than 3; in series [3] (setting [4]), less than 3; in series [3] (setting [5]) it was 6.5 ± 0.71; in series [3] (setting [6]) it was 13 ± 1.4; in series [3] (setting [7]), 17.5 ± 6.4. The PET hydrolysis in series [3] (setting [8]), in series [3] (setting [9]), in series [3] (setting [10]) and in series [3] (setting [11]) was less than 3 each time.
For the sequence “AANPYERGPAPTDAVLEASRGPFATTSYSVSGLSVTGFGGGVVYYPTSTSEGTFGAIAISPGYTATWSSLSWLGPRIASHGFVVIGIETNTLLDQPDSRGRQLLAALDYLVQRSSVRGRIDAGRLAVAGHSMGGGGTLEAAAARPSLQAAVPLAPWNLDKTWSGVTVPTLIVGGESDSVAPVASHSVPFYNSIPASSEKAYLELNGASHFFPQSVNTPTAKQMVAWLKRFVDNDTRYEQFLCPGPSGLAIEEYRNTCPSS [TEP018]”, the “purified protein yield per well” value in series [1] was determined as 65.6 µg. Further, the melting temperature in series [2] was 40.6 C. Further, the PET hydrolysis in series [3] (setting [4]), in series [3] (setting [5]), in series [3] (setting [6]), in series [3] (setting [7]), in series [3] (setting [8]) and in series [3] (setting [9]) was less than 3 throughout. For the same sequence, the PET hydrolysis in series [3] (setting [10]) and in series [3] (setting [11]) was less than 3 in each case.
As for “ADNPYQRGPDPTLASVAASRGPFATTQATVPPGNGFNGGYVYYPTDTSLGTWGAVAIVPGYSALFANEEAWMGPWLASFGFVVLGIETNSRNDGADARATQLLAALDYLTQSSPVRNRVDPNRLSVMGHSAGGAGTLMAALRRPSLKTAVGLAPGAPGNSLNMSTTKVPTMLISGQNDGTVTPSYVQGIYNTLPASVEHAWAELAGNDHLSFTRPNPTEMRILIPWLKIFLDNDTRYTQFLCPLADSTGVSRYNSTCPLVPPGVPTSPPTTPPTSTPPPTGPPTSPPPPTTTPPPAGGACTATYRTVGSWSGGFQGEVTVTAGSAAINGWTVRLDLGGGQSISQVWNGTLSTSGSTATVRNVSYNGSLAAAGSTTFGFLGSGTPPAPTPTCTSP [ESM005]”, the “purified protein yield per well” value in series [1] came to 88.4 µg. The melting temperature in series [2] was found to be 67 C. Moreover, the PET hydrolysis in series [3] (setting [4]), in series [3] (setting [5]), in series [3] (setting [6]), in series [3] (setting [7]), in series [3] (setting [8]) and in series [3] (setting [9]) was less than 3 in each case. Moreover, the PET hydrolysis in series [3] (setting [10]) and in series [3] (setting [11]) was less than 3 throughout.
Regarding “ADNPYQRGPDPTPTSVTAVNGPFANTSVAVPTGYGFNGGRIYYPTDTSQGTFGAIAISPGYTALFSAELAWMGPWLASHGFVVIGIETNSRNDFDTARGTQLLAALDYLTQQSPVRDRVDPNRLAVAGHSMGGGGALSAATRRSSLKAAVGIAPYSPSSNLANDRVPTMIFAGQADTVVTPSYASGLYNSLPATTESVYLEVAGADHGFMVGRSNPVMVRTMLPFVKMFIDNDTRYSQFLCPLMDSSGVVTSRSTCPLLPSDPTTPTPTPTTPDPTPTVPPGSASEIVGTQSGRCIDVPNASRTNGTRVQLYNCNRQTNQAWTYTSNKQLQVYGTMCLDAAGSGNGAAVQIYSCHSGTNQQWNVNSNGTISGVQSGRCLDVWSTSNGAQVQLYDCHGQTNQQFRLAPLG [ESM132]”, the “purified protein yield per well” value in series [1] stood at 144 µg. This sequence yielded a melting temperature in series [2] of 56.2 C. In addition, the PET hydrolysis is less than 3 in series [3] (setting [4]); 5 in series [3] (setting [5]); less than 3 in series [3] (setting [6]); less than 3 in series [3] (setting [7]); less than 3 in series [3] (setting [8]); less than 3 in series [3] (setting [9]). Besides, the PET hydrolysis in series [3] (setting [10]) and in series [3] (setting [11]) was less than 3 in each case.
Take “QSAEASPPHGPDPTEESITAPRGPFEIDQKTVSRASVRGFGGGTIYYPTDTSEGTFSAVAIAPGYTAGQESLAWLGPRLASQGFVVFTIDTLTRYDQPDSRSRQLLAALDHLTDDSDVADRVDPARRGVMGHSMGGGGSLQAALDDPDLKAAIPMTPWHTTKDFSGVRTPTLIIGAQNDTVAPVSQHAKPFYESLPDDPGKAYLELAGASHFAPNVDNTTIARYSIAWLKRFLDDDTRYEQFLCPPPPDPAISDHQSTCPY [TEP105]”: the “purified protein yield per well” value in series [1] turned out to be 207 µg. For the same sequence, in series [2], the melting temperature was 61.6 C. Further, the PET hydrolysis in series [3] (setting [12]) was less than 3; in series [3] (setting [13]) it was less than 3; in series [3] (setting [14]) it was 5 ± 1.4; in series [3] (setting [15]) it was 7.5 ± 0.71; in series [3] (setting [16]) it was less than 3; in series [3] (setting [17]) it was less than 3. Further, the PET hydrolysis is less than 3 in series [3] (setting [18]); 10 ± 4.2 in series [3] (setting [19]); less than 3 in series [3] (setting [4]); 15.5 ± 0.71 in series [3] (setting [5]); 46.5 ± 0.71 in series [3] (setting [6]); 59.5 ± 0.71 in series [3] (setting [7]). The PET hydrolysis in series [3] (setting [8]) is less than 3; in series [3] (setting [9]), 10.5 ± 0.71; in series [3] (setting [10]) it was 101 ± 1.4; in series [3] (setting [11]) it was 118 ± 13.
